These are literature values, as cited in publication PMC2649756.

Broadly, the Kd is the concentration at which binding is half-saturated.

The target in this series is βI-spectrin 1898-2083 (Homo sapiens) (UniProt P11277). As to conditions: cited from earlier work.
Sequence of βI-spectrin 1898-2083 (Homo sapiens) (P11277 1898-2083): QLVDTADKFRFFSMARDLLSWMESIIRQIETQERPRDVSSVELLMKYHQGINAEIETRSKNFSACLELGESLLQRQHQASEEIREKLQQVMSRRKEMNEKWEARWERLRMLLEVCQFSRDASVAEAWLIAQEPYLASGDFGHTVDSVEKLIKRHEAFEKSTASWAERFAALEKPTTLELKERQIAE

Sequence of αI-spectrin (P02549 whole entry): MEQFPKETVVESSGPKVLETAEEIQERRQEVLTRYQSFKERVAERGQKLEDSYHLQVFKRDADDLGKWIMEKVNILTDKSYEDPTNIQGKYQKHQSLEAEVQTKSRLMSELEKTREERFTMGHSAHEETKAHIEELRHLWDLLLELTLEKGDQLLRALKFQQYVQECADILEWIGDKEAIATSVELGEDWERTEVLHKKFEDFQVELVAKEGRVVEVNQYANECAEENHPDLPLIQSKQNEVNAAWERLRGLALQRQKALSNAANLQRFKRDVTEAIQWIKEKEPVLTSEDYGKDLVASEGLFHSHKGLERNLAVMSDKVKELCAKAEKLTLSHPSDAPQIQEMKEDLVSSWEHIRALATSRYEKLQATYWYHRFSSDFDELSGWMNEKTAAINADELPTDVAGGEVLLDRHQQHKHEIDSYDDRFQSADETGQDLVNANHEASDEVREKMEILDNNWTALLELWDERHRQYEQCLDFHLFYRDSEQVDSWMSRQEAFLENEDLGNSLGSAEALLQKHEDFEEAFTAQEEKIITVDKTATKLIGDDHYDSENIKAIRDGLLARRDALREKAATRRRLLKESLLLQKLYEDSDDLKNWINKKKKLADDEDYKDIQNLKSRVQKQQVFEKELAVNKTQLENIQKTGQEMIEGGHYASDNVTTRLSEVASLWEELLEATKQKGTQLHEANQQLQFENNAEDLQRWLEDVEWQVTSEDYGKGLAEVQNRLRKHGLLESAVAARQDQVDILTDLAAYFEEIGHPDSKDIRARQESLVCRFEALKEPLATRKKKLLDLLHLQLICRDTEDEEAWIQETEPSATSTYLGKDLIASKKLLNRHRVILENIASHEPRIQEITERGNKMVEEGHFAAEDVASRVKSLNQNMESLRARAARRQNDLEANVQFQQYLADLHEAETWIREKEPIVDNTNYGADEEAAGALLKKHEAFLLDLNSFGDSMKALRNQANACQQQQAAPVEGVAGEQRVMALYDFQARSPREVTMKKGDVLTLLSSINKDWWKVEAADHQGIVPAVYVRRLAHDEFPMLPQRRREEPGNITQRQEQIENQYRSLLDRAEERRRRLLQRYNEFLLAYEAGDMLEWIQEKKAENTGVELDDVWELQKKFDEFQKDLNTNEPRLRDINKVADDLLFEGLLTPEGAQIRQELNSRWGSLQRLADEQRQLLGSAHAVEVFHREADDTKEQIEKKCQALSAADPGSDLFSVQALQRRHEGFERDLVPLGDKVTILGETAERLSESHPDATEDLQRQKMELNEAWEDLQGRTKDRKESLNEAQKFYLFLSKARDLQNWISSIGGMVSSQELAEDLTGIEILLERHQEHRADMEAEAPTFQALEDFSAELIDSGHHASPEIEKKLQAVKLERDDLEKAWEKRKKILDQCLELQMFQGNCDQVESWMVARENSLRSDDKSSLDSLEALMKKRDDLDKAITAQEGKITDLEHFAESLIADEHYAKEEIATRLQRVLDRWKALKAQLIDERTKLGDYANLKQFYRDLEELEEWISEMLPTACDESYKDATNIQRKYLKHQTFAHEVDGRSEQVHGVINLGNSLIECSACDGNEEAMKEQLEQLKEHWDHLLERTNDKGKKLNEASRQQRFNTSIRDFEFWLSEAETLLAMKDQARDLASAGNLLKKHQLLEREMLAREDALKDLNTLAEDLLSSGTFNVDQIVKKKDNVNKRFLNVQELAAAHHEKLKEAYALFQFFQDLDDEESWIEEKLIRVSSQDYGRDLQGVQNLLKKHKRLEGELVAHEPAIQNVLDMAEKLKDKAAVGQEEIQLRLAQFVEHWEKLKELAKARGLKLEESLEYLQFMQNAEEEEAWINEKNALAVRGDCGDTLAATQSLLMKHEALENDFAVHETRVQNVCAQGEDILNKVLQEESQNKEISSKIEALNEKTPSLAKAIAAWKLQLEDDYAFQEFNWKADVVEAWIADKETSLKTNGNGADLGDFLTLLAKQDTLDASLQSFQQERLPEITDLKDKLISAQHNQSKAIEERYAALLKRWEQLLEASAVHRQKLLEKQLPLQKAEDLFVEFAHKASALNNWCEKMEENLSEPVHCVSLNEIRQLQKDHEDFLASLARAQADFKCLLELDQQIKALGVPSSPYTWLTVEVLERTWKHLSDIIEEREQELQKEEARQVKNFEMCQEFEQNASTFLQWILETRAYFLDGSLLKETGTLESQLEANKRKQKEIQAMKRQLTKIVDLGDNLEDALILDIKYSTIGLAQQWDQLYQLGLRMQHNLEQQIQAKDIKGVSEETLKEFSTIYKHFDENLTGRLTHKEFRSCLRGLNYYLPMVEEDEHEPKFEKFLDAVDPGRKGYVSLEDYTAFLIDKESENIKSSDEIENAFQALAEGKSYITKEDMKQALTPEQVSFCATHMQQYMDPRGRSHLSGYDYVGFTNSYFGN

As for αI-spectrin (from UniProt P02549), the Kd was 1000 nM.
